For experiment [1], the target named is T1, CTLA-4-Ig(G4) (Repligen, Inc.) (UniProt P16410 37-161, limits assumed). Kind of experiment: competition ELISA, antibody with CTLA-4-Ig(G4) 0.3 nM on coated B7.1-Ig(G1). (ELISA stands for enzyme-linked immunosorbent assay.)
Experiment [2] has as its target T2, CTLA-4-IgG1 fusion protein (OM-CTLA4-IgG1, made in-house) (human).
T2 construct: covalent dimer through cysteine 120 of CTLA-4; The marks for signal peptide (underline) and CTLA4 domain are lost in the text; also called CTLA-4-Ig fusion protein; human CTLA4-IgG
Briefly: BIAcore, immobilised CTLA-4-Ig fusion, 457.2 RU. For orientation: In SPR one partner is held on a chip, and binding of the other changes the refractive index at the surface.

For experiment [3], the target named is T2, CTLA-4-IgG1 fusion protein …. Kind of experiment: selectivity ELISA, coated CTLA-4/Ig against CD28/Ig, antibody 1 ug/ml.
The target is the same in experiment [4]. Briefly: BIAcore, immobilised CTLA-4-Ig fusion, 397.8 RU.
For experiment [5] the target is unchanged. Kind of experiment: BIAcore, immobilised CTLA-4-Ig fusion, 504.5 RU.
The target is the same in experiment [6]. Kind of experiment: BIAcore, immobilised CTLA-4-Ig fusion, 878.7 RU.
Experiment [7] has the same target. Briefly: selectivity ELISA, coated CTLA-4/Ig against B7.2/Ig, antibody 1 ug/ml.
In experiment [8] the target is T1, CTLA-4-Ig(G4) (Repligen, Inc.). Kind of experiment: competition ELISA, antibody with CTLA-4-Ig(G4) 0.3 nM on coated B7.2-Ig(G1).
Experiment [9] deals with T2, CTLA-4-IgG1 fusion protein …. Kind of experiment: selectivity ELISA, coated CTLA-4/Ig against CD44/Ig, antibody 1 ug/ml.
Experiment [10] has the same target. Kind of experiment: selectivity ELISA, coated CTLA-4/Ig against B7.2/Ig.
Experiment [11] shares this target. Briefly: selectivity ELISA, coated CTLA-4/Ig against CD28/Ig.
For experiment [12] the target is unchanged. Briefly: selectivity ELISA, coated CTLA-4/Ig against hIgG.
The target in experiment [13] is T1, CTLA-4-Ig(G4) (Repligen, Inc.). Briefly: competition ELISA (separate experiment), antibody with CTLA-4-Ig(G4) 0.3 nM on coated B7.2-Ig(G1).
Experiment [14] shares this target. Kind of experiment: competition ELISA (separate experiment), antibody with CTLA-4-Ig(G4) 0.3 nM on coated B7.1-Ig(G1).

One may read the IC50 as the midpoint of a concentration-inhibition curve. Read a high IC50 as a need for much substance. What is called Kd is the free concentration of one partner at which half of the binding sites on the other are occupied at equilibrium, for simple one-to-one binding. High values mean lower affinity, low ones higher affinity. In general, koff refers to the first-order rate constant of dissociation. As usually defined, the kon is a measure of how fast the partners come together. A low value points to slow association.

T1 sequence (P16410 37-161 limits assumed): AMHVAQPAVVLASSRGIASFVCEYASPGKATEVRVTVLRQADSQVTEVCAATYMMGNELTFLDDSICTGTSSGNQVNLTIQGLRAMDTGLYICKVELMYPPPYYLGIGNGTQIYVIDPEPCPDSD
T2 sequence (chain, as listed by the source): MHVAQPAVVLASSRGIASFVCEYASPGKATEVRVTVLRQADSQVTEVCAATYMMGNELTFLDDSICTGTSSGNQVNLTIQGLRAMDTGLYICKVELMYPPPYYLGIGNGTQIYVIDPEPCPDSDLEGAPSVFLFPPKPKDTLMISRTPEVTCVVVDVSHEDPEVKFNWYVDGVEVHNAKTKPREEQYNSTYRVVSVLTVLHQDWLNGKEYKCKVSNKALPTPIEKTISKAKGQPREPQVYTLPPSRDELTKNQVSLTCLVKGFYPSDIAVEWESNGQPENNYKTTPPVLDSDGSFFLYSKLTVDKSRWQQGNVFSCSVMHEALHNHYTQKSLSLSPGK

B1: 3.1.1 (antibody, human IgG2, V domains shown)
VH: QVQLVESGGGVVQPGRSLRLSCAASGFTFSSYGMHWVRQAPGKGLEWVAVIWYDGSNKYYADSVKGRFTISRDNSKNTLYLQMNSLRAEDTAVYYCARGARIITPCMDVWGQGTTVTVSS
VL: DIQMTQSPSSLSASVGDRVTITCRASQSINTYLIWYQQKPGKAPNFLISATSILQSGVPSRFRGSGSGTNFTLTINSLHPEDFATYYCQQSYSTPFTFGPGTKVDIK
modifications: chain 1 pos 1: pyroglutamate from Gln (FIG. 9: NH2-Blocked, pQ), written Q
notes: Fully human IgG2 kappa; VH DP-50, VK 012; also called CT3.1.1
Consider B1, for which the IC50 was determined as 0.63 nM in experiment [1] and 0.45 nM in experiment [8]. The Ka was found to be 4.4e+09 M⁻¹ in experiment [2], 4.4e+09 M⁻¹ in [4], 5.5e+09 M⁻¹ in [5] and 1.07e+10 M⁻¹ in experiment [6]. Moreover, the Kd in [2] turned out to be 0.227 nM; in experiment [4], 0.228 nM; in experiment [5] it was 0.182 nM; in [6], 0.093 nM. Moreover, the koff in experiment [2] came to 0.000165 s⁻¹; in experiment [4] it was 0.000207 s⁻¹; in experiment [5], 0.000172 s⁻¹; in [6], 9.6e-05 s⁻¹. The kon in experiment [2] was determined as 730000 M⁻¹ s⁻¹; in experiment [4], 910000 M⁻¹ s⁻¹; in experiment [5] it was 950000 M⁻¹ s⁻¹; in experiment [6], 1.04e+06 M⁻¹ s⁻¹. The “selectivity ratio CTLA4/CD28” value in experiment [3] was > 500 :1. For the same molecule, the “selectivity ratio CTLA4/B7.2” value in [7] is > 500 :1. In addition, the “selectivity ratio CTLA4/CD44” value in experiment [9] is > 500 :1.

B2: 4.10.2 (antibody, human IgG2, V domains shown)
VH: QVQLVESGGGVVQPGRSLRLSCVASGFIFSSHGIHWVRQAPGKGLEWVAVIWYDGRNKDYADSVKGRFTISRDNSKNTLYLQMNSLRAEDTAVYYCARVAPLGPLDYWGQGTLVTVSS
VL: EFVLTQSPGTLSLSPGERATLSCRASQSISSNFLAWYQQKPGQAPRLLIYRPSSRATGIPDSFSGSGSGTDFTLTISRLEPEDFALYYCQQYGTSPFTFGPGTKVDIK
modifications: chain 1 pos 1: pyroglutamate from Gln (FIG. 9: NH2-Blocked, pQ), written Q
notes: Fully human IgG2 kappa; VH DP-50, VK A27; also called CT4.10.2
Consider B2, for which the IC50 in [1] came out at 3.39 nM. In experiment [2], the Ka is 1.4e+09 M⁻¹, the Kd stood at 0.721 nM, the koff came to 0.000505 s⁻¹ and the kon is 700000 M⁻¹ s⁻¹. In experiment [5], the Ka came out at 2.2e+09 M⁻¹, binding was put at a Kd of 0.455 nM, the koff is 0.00043 s⁻¹ and the kon stood at 940000 M⁻¹ s⁻¹. In [6], this molecule gave a Ka of 3.9e+09 M⁻¹, a Kd of 0.254 nM, a koff of 0.000253 s⁻¹ and an on-rate constant (kon) of 1e+06 M⁻¹ s⁻¹. The molecule further yielded an IC50 in experiment [8] of 1.5 nM.

B3: 11.2.1 (antibody, human IgG2, kappa, V domains shown)
VH: QVQLVESGGGVVQPGRSLRLSCAASGFTFSSYGMHWVRQAPGKGLEWVAVIWYDGSNKYYADSVKGRFTISRDNSKNTLYLQMNSLRAEDTAVYYCARDPRGATLYYYYYGMDVWGQGTTVTVSS
VL: DIQMTQSPSSLSASVGDRVTITCRASQSINSYLDWYQQKPGKAPKLLIYAASSLQSGVPSRFSGSGSGTDFTLTISSLQPEDFATYYCQQYYSTPFTFGPGTKVEIKR
notes: also called CT11.2.1
Turning to B3, the “selectivity ratio CTLA4/B7.2” value in experiment [10] was > 500 :1. For the same molecule, the “selectivity ratio CTLA4/CD28” value in [11] was > 500 :1. The “selectivity ratio CTLA4/hIgG” value in experiment [12] was > 500 :1. Moreover, the IC50 in experiment [13] was 0.56 nM; in [14], 0.81 nM.
